Laboratory results: PMC8501957

Biological target: MvaT F36D/M44D (P. aeruginosa) (UniProt Q9HW86)
Test: ITC; gp4 injected into MvaT F36D/M44D in the cell; 20 C; 20 mM Bis-Tris pH 6, 50 mM KCl, 16 mM MgCl2; one set of sites model

Q: What does the source list for “gp4 of Pseudomonas phage LUZ24 (natural protein)”?
A: Kd: 170 nM; stoichiometry N: 0.56

Q: What does the source list for gp4 K42E/K45E (natural protein)?
A: Kd: 1360 nM; stoichiometry N: 0.52
